# Results reported in US10501493B2, “Broad spectrum antibiotics” (priority 2011, dated 2019).
# How the values were obtained:
# [1] = tested on: S. aureus NCTC-8325 SpsB(P295); test: In vitro antimicrobial activity, MIC by broth micro-dilution; type: cell-based; settings: Staphylococcus aureus, NCTC8325
# [2] = tested on: S. epidermidis RP62A SpsIB(S29P); test: as above; type: cell-based; settings: Staphylococcus epidermidis
# [3] = tested on: P. aeruginosa PA01 LepB(P84L); test: as above; type: cell-based; settings: Pseudomonas aeruginosa
# Procedure, shortened: (§1)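 CLSI broth micro-dilution MIC against two-fold serial compound dilutions. Inoculum came from colonies grown 24 h at 35° C. or 28° C., suspended in cation-adjusted Mueller Hinton broth at 1*10^7 CFU/ml, of which 5 μl was added per 100 μl well. LepB(P84L) is a proline-mutant SPase strain with heightened arylomycin susceptibility.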
# E. coli MIG1655 = test: as above; type: cell-based; settings: Escherichia coli, MIG1655
# Procedure, shortened: as §1
# P. aeruginosa PA01 = test: as above; type: cell-based; settings: Pseudomonas aeruginosa, read-out: MIC
# Procedure, shortened: as §1
# S. epidermidis RP62A = test: as above; type: cell-based; settings: Staphylococcus epidermidis; S. epidermidis RP62A; read-out: MIC
# [4] = tested on: E. coli MIG1655 LepB(P84L); test: as above; type: cell-based; settings: Escherichia coli
# Procedure, shortened: as §1
# S. pyogenes M15448 = test: as above; type: cell-based; settings: Streptococcus pyogenes; S. pyogenes M15448; read-out: MIC
# Procedure, shortened: as §1
# S. agalactiae COH-1 = test: as above; type: cell-based; settings: Streptococcus agalactiae, COH1; S. agalactiae COH-1; read-out: MIC
# S. aureus ATCC 29213 = test: as above; type: cell-based; settings: Staphylococcus aureus, ATCC29213, read-out: MIC
# S. agalactiae ATCC 13813 = test: as above; type: cell-based; settings: Streptococcus agalactiae, ATCC13813, read-out: MIC
# S. pyogenes ATCC 19615 = test: as above; type: cell-based; settings: Streptococcus pyogenes, ATCC19615, read-out: MIC
# C. glutamicum DSM 44475 = test: as above; type: cell-based; settings: Corynebacterium glutamicum, DSM44475, read-out: MIC
# S. pneumoniae R800 = test: as above; type: cell-based; settings: Streptococcus pneumoniae, read-out: MIC
# Procedure, shortened: as §1
# [5] = tested on: S. epidermidis ATCC 12228; test: as above; type: cell-based; settings: Staphylococcus epidermidis, ATCC12228, read-out: MIC
# [6] = tested on: S. epidermidis RP62A SpsIB(S31P); test: as above; type: cell-based; settings: Staphylococcus epidermidis
# R. equi DSM 6939 = test: as above; type: cell-based; settings: Rhodococcus (subgen. Prescottella) equi, DSM6939, read-out: MIC
# Procedure, shortened: as §1
# S. pneumoniae D39 = test: as above; type: cell-based; settings: Streptococcus pneumoniae; S. pneumoniae D39; read-out: MIC
# E. coli SPase = target: T1, E. coli SPase (Escherichia coli, UniProt P00803); test: Steady state binding constant (Kd) determination by fluorescence increase
# T1 construct: Full length His-tagged E. coli SPase proteins were expressed in E. coli BL21(DE3); His-tag; made in house; host or cells: E. coli BL21(DE3)
# Experimental: (§2) Full length His-tagged E. coli SPase proteins were expressed in E. coli BL21(DE3) containing the plasmid pET23-lepB, P. A. Smith et al. Chem Biol 2010, 1223-1231. Briefly, saturated overnight cultures grown in 20 ml of Luria-Bertani medium supplemented with ampicillin were subcultures into 1.5 L of Luria-Bertani, and shaken at 37° C. until an optical density at 600 nm of 0.4-0.5 was achieved. Protein expression was induced with Isopropyl β-D-1-thiogalactopyranoside (ITPG) at a final concentration of […], and purified using nickel affinity chromatography. Full length His-tagged S. aureus SPase protein was expressed similarly from E. coli BL21(DE3) containing the plasmid pCDF1-SaSpsB or pCDF1-SaSpsB(P29S) and purified similarly to the E. coli protein with the following exceptions. SPase protein was solubilized using 300 mM NaCl, 20 mM Tris pH 8.06, 5 mM Imidazole, 10% glycerol, 1% Triton X-100, prior to purification in Ni-NTA Superflow resin and resin bound protein was washed in a similar buffer containing 1% Elugent in place of Triton X-100 prior to protein eluted in wash buffer supplemented with 300 mM imidazole. Protein purify was judged to exceed 95% by visual inspection of SDS-PAGE followed by Comassie staining. All protein concentrations were determined by BCA assay.
# (§3) Steady state binding constants (Kds) of compounds were determined by measuring an increase in fluorescence (λex=280 nm, λem=405 nm) that occurs upon binding to E. coli or S. aureus SPase protein. Two-fold serial dilutions of compounds were prepared in 100% DMSO, and compounds were diluted into binding buffer consisting of 100 mM NaCl, 20 mM Tris-HCl pH 7.4, 1 mM EDTA, 1% n-octyl-3-glucopyranoside (Anatrace), and 10% glycerol, with the final DMSO concentration equal to 1%. 70 μl of the resulting solutions containing various concentrations of compound in binding buffer were aliquoted into triplicate wells of a black polystyrene 384-well plate. 5 μl of blank solution or E. coli or S. aureus protein at concentrations of 750 or 3750 nM respectively, were added to each set of wells for a given inhibitor concentration. Plates were incubated for 14 hours and fluorescence read on an EnVision Multilable plate reader (Perkin Elmer™). Differences in fluorescence values between wells with and without protein were determined and background corrected for protein auto fluorescence. The corrected fluorescence difference data was fit to the quadratic equilibrium binding curve using the non-linear regression analysis software Solver (Frontline Systems®) run in Excel 2010, (Microsoft®), using experimentally determined quantum efficiency constants to convert fluorescence into nanomoles of protein/compound complex.
# S. aureus SPase = target: T2, S. aureus SPase (Staphylococcus aureus, UniProt P0A070); test: as above
# T2 construct: Full length His-tagged S. aureus SPase protein was expressed similarly; His-tag; made in house; host or cells: E. coli BL21(DE3)
# Experimental: as §2, §3
# [7] = target: Full length His-tagged E. coli SPase (E. coli) (UniProt P00803); test: fluorescence binding titration; compound conc. 1.E+03 (unit inferred)
# [8] = target: Full length His-tagged E. coli SPase (E. coli) (UniProt P00803); test: fluorescence binding titration; compound conc. 1.E+02 (unit inferred)
# [9] = target: Full length His-tagged S. aureus SPase (S. aureus) (UniProt P0A070); test: fluorescence binding titration; compound conc. 125 (unit inferred)
# [10] = target: Full length His-tagged E. coli SPase (E. coli) (UniProt P00803); test: fluorescence binding titration; compound conc. 3.E+02 (unit inferred)
# [11] = target: Full length His-tagged E. coli SPase (E. coli) (UniProt P00803); test: fluorescence binding titration; compound conc. 2.E+01 (unit inferred)
# [12] = target: Full length His-tagged S. aureus SPase (S. aureus) (UniProt P0A070); test: fluorescence binding titration; compound conc. 1000 (unit inferred)
# [13] = target: Full length His-tagged S. aureus SPase (S. aureus) (UniProt P0A070); test: fluorescence binding titration; compound conc. 250 (unit inferred)
# [14] = target: Full length His-tagged E. coli SPase (E. coli) (UniProt P00803); test: fluorescence binding titration; compound conc. 2.E+03 (unit inferred)
# [15] = target: Full length His-tagged S. aureus SPase (S. aureus) (UniProt P0A070); test: fluorescence binding titration; compound conc. 15.625 (unit inferred)
# [16] = target: Full length His-tagged S. aureus SPase (S. aureus) (UniProt P0A070); test: fluorescence binding titration; compound conc. 500 (unit inferred)
# [17] = target: Full length His-tagged S. aureus SPase (S. aureus) (UniProt P0A070); test: fluorescence binding titration; compound conc. 4000 (unit inferred)
# [18] = target: Full length His-tagged E. coli SPase (E. coli) (UniProt P00803); test: fluorescence binding titration; compound conc. 0.E+00 (unit inferred)
# [19] = target: Full length His-tagged E. coli SPase (E. coli) (UniProt P00803); test: fluorescence binding titration; compound conc. 3.E+01 (unit inferred)
# [20] = target: Full length His-tagged E. coli SPase (E. coli) (UniProt P00803); test: fluorescence binding titration; compound conc. 6.E+01 (unit inferred)
# [21] = target: Full length His-tagged E. coli SPase (E. coli) (UniProt P00803); test: fluorescence binding titration; compound conc. 4.E+03 (unit inferred)
# [22] = target: Full length His-tagged S. aureus SPase (S. aureus) (UniProt P0A070); test: fluorescence binding titration; compound conc. 31.25 (unit inferred)
# [23] = target: Full length His-tagged S. aureus SPase (S. aureus) (UniProt P0A070); test: fluorescence binding titration; compound conc. 8000 (unit inferred)
# [24] = target: Full length His-tagged S. aureus SPase (S. aureus) (UniProt P0A070); test: fluorescence binding titration; compound conc. 2000 (unit inferred)
# [25] = target: Full length His-tagged E. coli SPase (E. coli) (UniProt P00803); test: fluorescence binding titration; compound conc. 8.E+00 (unit inferred)
# [26] = target: Full length His-tagged S. aureus SPase (S. aureus) (UniProt P0A070); test: fluorescence binding titration; compound conc. 62.5 (unit inferred)
# [27] = target: Full length His-tagged E. coli SPase (E. coli) (UniProt P00803); test: fluorescence binding titration; compound conc. 5.E+02 (unit inferred)
compound,measurement,setting,value
"CCCCCCCCCCCCCCCC(=O)N(C)[C@H](CO)C(=O)N[C@H](C)C(=O)NCC(=O)N(C)[C@@H]1C(=O)N[C@@H](C)C(=O)N[C@H](C(=O)O)Cc2ccc(O)c(c2)-c2cc1ccc2O [Compound 1, arylomycin C16]",MIC,[1],4 µg/mL
same,MIC,[2],8 µg/mL
same,MIC,[3],8 µg/mL
same,MIC,E. coli MIG1655,> 64 µg/mL
same,MIC,P. aeruginosa PA01,> 64 µg/mL
same,MIC,S. epidermidis RP62A,0.3 µg/mL
same,MIC,[4],1 µg/mL
same,MIC,S. pyogenes M15448,16 µg/mL
same,MIC,S. agalactiae COH-1,> 64 µg/mL
same,MIC,S. aureus ATCC 29213,> 64 µg/mL
same,MIC,S. agalactiae ATCC 13813,16 µg/mL
same,MIC,S. pyogenes ATCC 19615,16 µg/mL
same,MIC,C. glutamicum DSM 44475,8 µg/mL
same,MIC,S. pneumoniae R800,8 µg/mL
same,MIC,[5],2 µg/mL
same,MIC,[6],> 64 µg/mL
same,MIC,R. equi DSM 6939,16 µg/mL
same,MIC,S. pneumoniae D39,4 µg/mL
same,Kd,E. coli SPase,0.075 µM
same,Kd,S. aureus SPase,0.75 µM
CCCCCCCCCCCCCCCC(=O)N(C)[C@H](CO)C(=O)N[C@H](C)C(=O)NCC(=O)N(C)[C@@H]1C(=O)N[C@@H](C)C(=O)N[C@H](C(=O)NC(C)C=O)Cc2ccc(O)c(c2)-c2cc1ccc2O (some centres unmarked) [Compound 33],MIC,[1],64 µg/mL
same,MIC,[2],64 µg/mL
same,MIC,[3],> 64 µg/mL
same,MIC,E. coli MIG1655,> 64 µg/mL
same,MIC,P. aeruginosa PA01,> 64 µg/mL
same,MIC,S. epidermidis RP62A,64 µg/mL
same,MIC,[4],64 µg/mL
same,MIC,S. pyogenes M15448,16 µg/mL
same,MIC,S. agalactiae COH-1,64 µg/mL
same,MIC,S. aureus ATCC 29213,> 64 µg/mL
same,MIC,S. agalactiae ATCC 13813,> 64 µg/mL
same,MIC,S. pyogenes ATCC 19615,16 µg/mL
same,MIC,C. glutamicum DSM 44475,64 µg/mL
same,MIC,S. pneumoniae R800,32 µg/mL
same,MIC,[5],> 64 µg/mL
same,MIC,[6],64 µg/mL
same,MIC,R. equi DSM 6939,64 µg/mL
same,MIC,S. pneumoniae D39,32 µg/mL
Compound 1 (arylomycin C16) (peptide),% Comp calc,[7],96%
same,% Comp obs,[7],98%
same,% Comp calc,[8],71%
same,% Comp obs,[8],69%
same,% Comp calc,[9],14%
same,% Comp obs,[9],13.7%
same,% Comp calc,[10],85%
same,% Comp obs,[10],81%
same,% Comp calc,[11],17%
same,% Comp obs,[11],16%
same,% Comp calc,[12],61.1%
same,% Comp obs,[12],59.1%
same,% Comp calc,[13],25.4%
same,% Comp obs,[13],25.6%
same,% Comp calc,[14],98%
same,% Comp obs,[14],102%
same,% Comp calc,[15],1.9%
same,% Comp obs,[15],1.7%
same,% Comp calc,[16],42%
same,% Comp obs,[16],38.6%
same,% Comp calc,[17],87.6%
same,% Comp obs,[17],87.3%
same,% Comp calc,[18],0%
same,% Comp obs,[18],-1%
same,% Comp calc,[19],31%
same,% Comp obs,[19],32%
same,% Comp calc,[20],51%
same,% Comp obs,[20],53%
same,% Comp calc,[21],99%
same,% Comp obs,[21],95%
same,% Comp calc,[22],3.8%
same,% Comp obs,[22],4.9%
same,% Comp calc,[23],93.6%
same,% Comp obs,[23],87.8%
same,% Comp calc,[24],77.1%
same,% Comp obs,[24],86.1%
same,% Comp calc,[25],9%
same,% Comp obs,[25],10%
same,% Comp calc,[26],7.4%
same,% Comp obs,[26],6.4%
same,% Comp calc,[27],92%
same,% Comp obs,[27],92%
